33 sequences from the supplement of paper PMC9170038 can be followed below.

The test system of this data set is MS2 coat protein. The data set is described as follows: apparent KD of MS2 coat protein; designed switch direction (-1 OFF switch, 1 ON switch): -1; higher = weaker reporter binding. In short, it runs like this: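 Designed RNA switches sharing common flanks were transcribed on Illumina chips by stalled E. coli RNA polymerase. They were titrated with SNAP-549-labelled MS2 coat protein, from 0.7 or 1.5 nM doubling to 3 µM, in Tris-HCl pH 7.5 buffer with KCl, MgCl2, BSA, DTT, tRNA and Tween-20. Titrations ran without input, with 200 uM small-molecule ligand, or with an oligonucleotide input. The apparent KD of each design is the median over its clusters, after curve-fitting of normalised cluster fluorescence.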

[1] abbreviates: Eterna round: R95, input ligand: FMN 200 uM.
The mark [2] stands for this setting: Eterna round: R95, input ligand: microRNA oligo, concentration not stated.
[3] abbreviates: Eterna round: R95, input ligand: none.
Where [4] appears, read: input ligand: microRNA oligo, concentration not stated.

“AAUAUAAGCAAGAUCCUAAACAUGAGGAUCACCCAUGUGCUCGUCUUAUAAAGUACUAUCACGAAAGUGAUAGUACA [Sensor 3, v1 - 65] (puzzle: Sensor v3, turn-off variant 1)”: the “apparent KD of MS2 coat protein” value under setting [1] stood at 111 nM, the “apparent KD of MS2 coat protein” value under setting [2] is 398 nM and the “apparent KD of MS2 coat protein” value under setting [3] was 127 nM.

Turning to “UAUCGGGACUGAGGAUAUUCGUUCGAACGCGAAGAAGAAGGUAGUGUCAGGGACAUGAGGAUCACCCAUGUGAUUUCAGUCCCA [JL ViennaUCT Erinle mod 5] (Eterna round: R96, puzzle: Exclusion NG 1)”, the “apparent KD of MS2 coat protein” value was found to be 98.2 nM (input ligand: FMN 200 uM), 56.1 nM under setting [4] and 99 nM (input ligand: none).

In the case of “CAGUACUGAGGAUAUACAUGAGGAUCACCCAUGUGUUCCAGCUAGGAGACUAGCAAAAGUAGAAGGCAGUACUG [salish99_ex3_r3_074] (Eterna round: R96, puzzle: Exclusion 3)”, the “apparent KD of MS2 coat protein” value is, setting by setting: (input ligand: FMN 200 uM) 523 nM; under setting [4], 20 nM; (input ligand: none) 25.1 nM.

“UCGAGUGGUUAGGAUAUCAUUGGUGCAUAUCAUUGAGAAGGAACUACAUGAGGAUCACCCAUGUGGCAGUGAUA [Abezaso] (puzzle: Exclusion 6)”: the “apparent KD of MS2 coat protein” value under setting [2] is 23.9 nM.

“CAUACUGAAGUUAGGAUAUGCGGCCGAAUACGGGUGUAGAAGGGACAUGAGGAUCACCCAUGUAGAUAGUAAAG [EX-4 Malc #16] (puzzle: Brourd's mod of Exclusion 4)”: the “apparent KD of MS2 coat protein” value is 27.3 nM under setting [1], 24.9 nM under setting [2] and 20.1 nM under setting [3].

For the sequence “UAUUAACAAGCAAGGUCCCACAUGAGGAUCACCCAUGUGCUCGUCUUAUAAGGUACUGUGACGAAAGUCACGGUACC [Sensor 3, v1 - 81] (puzzle: Sensor v3, turn-off variant 1)”, the “apparent KD of MS2 coat protein” value is, setting by setting: under setting [1], 32.4 nM; under setting [2], 469 nM; under setting [3], 33.6 nM.

With “GAUCUGCAGCAGGAUAUGCUCUCGGAAACGAGCGCAGAAGGGCUGACAUGAGGAUCACCCAUGUAAUAAUGGCC [EX6 A.24] (Eterna round: R97, puzzle: Exclusion 6)”, the “apparent KD of MS2 coat protein” value was 89.7 nM (input ligand: FMN 200 uM) and 44.2 nM (input ligand: none).

For the sequence “CCACGACAUGAGGAUCACCCAUGUGAGGAUAUGACCUGAAAAGCGUGAGCAGUUUGUAUCAGAAGGCGCGUGGG [salish99_ex1_r4_066] (Eterna round: R97, puzzle: Exclusion 1)”, the “apparent KD of MS2 coat protein” value (input ligand: FMN 200 uM) amounted to 54.4 nM and the “apparent KD of MS2 coat protein” value (input ligand: none) amounted to 67.4 nM.

On to “AGGUGUAGAGGAUAUCUCUUCUCUCACAUGAGGAUCACCCAUGUCCUGGGCACCAAGGAGAGAGAAGGCUACACCA [Omei Ex5 D10] (Eterna round: R97, puzzle: Exclusion 5)”, for which the “apparent KD of MS2 coat protein” value was found to be 72.7 nM (input ligand: FMN 200 uM) and 271 nM (input ligand: none).

Turning to “GAUUAGUGAGGAUAUGGUAAAGAUAAGAUGAUGAAAGAACUCCAGAAGGCACAUGAGGAUCACCCAUGUAGUAU [Mat - Exclusion 4 - Mod of JL - D22] (puzzle: Exclusion 4)”, the “apparent KD of MS2 coat protein” value under setting [2] is 21.6 nM.

Regarding “GGAUCGAAAGUGAGGAUAUACCACUGGAUACAGUGGUAGAAGGCACAUGAGGAUCACCCAUGUCUCUACGAUCC [Fiskers BMX 4 - 42] (puzzle: Brourd's mod of Exclusion 4)”, the “apparent KD of MS2 coat protein” value is, setting by setting: under setting [1], 39.9 nM; under setting [2], 13 nM; under setting [3], 15 nM.

“AAGAACGUAGGAUAUACAUGAGGAUCACCCAUGUGAGGAAGGAGUAGGAAGUGUGGAAGUAGAAGGACGGAGAG [JR_Exclu3_Sub076] (puzzle: Exclusion 3)”: the “apparent KD of MS2 coat protein” value reads like this: under setting [1], 31.5 nM; under setting [2], 35.4 nM; under setting [3], 33.8 nM.

Consider “CGGUACUGAGGAUAUACAUGAGGAUCACCCAUGUGUUCUAGCUAGCGUACUGGCUAUUGUAGAAGGCGGUGCUG [JL-ex3-3.24 Brourd mod] (puzzle: Exclusion 3)”, for which the “apparent KD of MS2 coat protein” value under setting [2] was 17.5 nM.

With “AGGUGUAGAGGAUAUUCAUUCUUCCACAUGAGGAUCACCCAUGUCCCGGUCACCAGGGACGGAGAAGGCUACACCA [Omei Ex5 D26] (Eterna round: R97, puzzle: Exclusion 5)”, the “apparent KD of MS2 coat protein” value runs as follows: (input ligand: FMN 200 uM) 108 nM; (input ligand: none) 76.8 nM.

As to “UAGCAUUGCCUUUGGUAGUGCCUUACAUGAGGAUCACCCAUGUAGGAUAUGGUAGGCUUUGCUUACCAGAAGGACAUGGUAAUU [JL ENG3 1.06] (Eterna round: R96, puzzle: Exclusion NG 3)”, the “apparent KD of MS2 coat protein” value under setting [4] is 54.1 nM.

“UGAAAGUGAGGAUAUCCAAUAUAUGACAUGAGGAUCACCCAUGUUUCCACUCGUACCUCCGGAGAAGGCACAAAGU [Ex5 #58] (Eterna round: R97, puzzle: Exclusion 5)”: the “apparent KD of MS2 coat protein” value is 26.2 nM (input ligand: FMN 200 uM) and 28.8 nM (input ligand: none).

For the sequence “GGUCCACAUGAGGAUCACCCAUGUUAGGAUAUCUCCUGCCUCCUCACUGGAGGCAGACAGAGAAGGAACAUCAA [Eratxe] (puzzle: Exclusion 1)”, the “apparent KD of MS2 coat protein” value amounted to 78.3 nM under setting [1], 22 nM under setting [2] and 23.9 nM under setting [3].

For the sequence “ACAUGUUAUCCAUGAUAUCACAUGAGGAUCACCCAUGUUAUGGCGAUUUUGAGGUGUAAGUUUGUUGCUCGUCUUAU [JR_STOV1_Sub059] (Eterna round: R97, puzzle: Sensor, turn-off variant 1)”, the “apparent KD of MS2 coat protein” value is 54.5 nM (input ligand: FMN 200 uM) and 65.3 nM (input ligand: none).

“AACAGUCUGGAGGAUAUGCUGGAUUAAUAUCUGGCAGAAGGCUGGACAUGAGGAUCACCCAUGUAAAUACUACC [Omei Ex6 A2] (Eterna round: R97, puzzle: Exclusion 6)”: the “apparent KD of MS2 coat protein” value (input ligand: FMN 200 uM) was 55.2 nM and the “apparent KD of MS2 coat protein” value (input ligand: none) was 21.5 nM.

Consider “AAUAACAGAGGAUAUACUAUUUUAUGUGUUUGUUAUUUUAAACAUGAGGAUCACCCAUGUAGAAGGCUGAUUGA [JMF 72] (puzzle: Exclusion 2)”, for which the “apparent KD of MS2 coat protein” value under setting [2] is 41 nM.

Consider “GAAAACGCAGAGGAUAUUCCAGAUCUAAGCUGCGAAGAAGGCUGCACAUGAGGAUCACCCAUGUGGUCUUUAAA [Maoned] (puzzle: Exclusion 6)”, for which the “apparent KD of MS2 coat protein” value runs as follows: under setting [1], 121 nM; under setting [2], 12.3 nM; under setting [3], 14.9 nM.

On to “GAGCUAUGAGGAUAUGCAUAUAUACGGAUUCGUGUAGUACUACAUGAGGAUCACCCAUGUAGAAGGCGUGGCUG [JL-ex2-2.03 mat747 mod] (puzzle: Exclusion 2)”, for which the “apparent KD of MS2 coat protein” value under setting [2] was 13.2 nM.

For the sequence “ACAAGCUCUGUUGGGUGGUACAUGAGGAUCACCCAUGUUUUGCUCGUCUUGUGGGCCCGGGCCCGCGGCCCGGGCCC [-41.7, -69.7, A 12%] (Eterna round: R97, puzzle: Sensor, turn-off variant 1)”, the “apparent KD of MS2 coat protein” value reads like this: (input ligand: FMN 200 uM) 513 nM; (input ligand: none) 807 nM.

Turning to “CUUUUUUGAGGAUAUUAGUAGUAAAUAAAUAAAAUUACUACUGAGAAGGCACAUGAGGAUCACCCAUGUUCCUC [salish99_ex4_r3_046] (puzzle: Exclusion 4)”, the “apparent KD of MS2 coat protein” value under setting [2] was found to be 17.6 nM.

With “ACCUCACAUGAGGAUCACCCAUGUUAGGAUAUCUCGGCGCCCUGUAGGCAGUAGCGCCAGAGAAGGAACGUGCA [Gearorso] (puzzle: Exclusion 1)”, the “apparent KD of MS2 coat protein” value under setting [2] stood at 19.8 nM.

In the case of “GCCGAUUAAGUGAGGAUAUACCUAUGGAUACAUAGGUAGAAGGUACAUGAGGAUCACCCAUGUUCCUCAUCGGC [Fiskers BMX 4 - 10] (puzzle: Brourd's mod of Exclusion 4)”, under setting [2], the “apparent KD of MS2 coat protein” value turned out to be 9.97 nM.

As for “GGUUGGCGAGGAUAUACAUGAGGAUCACCCAUGUGAGAGAAAAAAGUGAGGACGAAAAGUAGAAGGCGCUGACG [salish99_ex3_r3_032] (puzzle: Exclusion 3)”, the “apparent KD of MS2 coat protein” value under setting [1] worked out at 223 nM, the “apparent KD of MS2 coat protein” value under setting [2] is 69.1 nM and the “apparent KD of MS2 coat protein” value under setting [3] was 61.6 nM.

“UUUUUCAGGCCAGAUCCUCACAUGAGGAUCACCCAUGUGCUCGUCUGUUUUCGCGCUAGCUUUUUUUUGGUAGGGCU [Level Boss var2-17] (puzzle: Sensor v3, turn-off variant 1)”: the “apparent KD of MS2 coat protein” value under setting [1] was 329 nM, the “apparent KD of MS2 coat protein” value under setting [2] was determined as 29.7 nM and the “apparent KD of MS2 coat protein” value under setting [3] was found to be 325 nM.

Regarding “GGUCAAGAACAGAACCGCGCUGCCAUUGACCGCUCAUUUACAUGAGGAUCACCCAUGUUUUUUGCUUGUCUUGUUAC [Beusdieson] (puzzle: Sensor v3, turn-off variant 2)”, the “apparent KD of MS2 coat protein” value was found to be 16.2 nM under setting [1], 89.9 nM under setting [2] and 18.7 nM under setting [3].

For the sequence “GGAUGUUCAGAGGAUAUCGAUCCCGAGACCGGGCGAGAAGGUUGAACAUGAGGAUCACCCAUGUGAGGCCUAAC [Cebezais] (Eterna round: R97, puzzle: Exclusion 6)”, the “apparent KD of MS2 coat protein” value reads like this: (input ligand: FMN 200 uM) 38.5 nM; (input ligand: none) 12.7 nM.

For the sequence “UCUUGUGUUGAGGAUAUGCGCCGGCUCGCUGGCGCAGAAGGCGGCACAUGAGGAUCACCCAUGUCAGUUCGCGC [salish99_ex6_r004_007] (Eterna round: R97, puzzle: Exclusion 6)”, the “apparent KD of MS2 coat protein” value reads like this: (input ligand: FMN 200 uM) 56.3 nM; (input ligand: none) 205 nM.

Consider “UUUUUUUGAGUAAGGAUAUGAUGCAGGAAACUGCGUCAGAAGGUACAUGAGGAUCACCCAUGUUAAUUUUGUUU [Explosion 14 - Jieux - Brourd's mod of Exclusion 4] (Eterna round: R97, puzzle: Brourd's mod of Exclusion 4)”, for which the “apparent KD of MS2 coat protein” value by setting is: (input ligand: FMN 200 uM) 18.4 nM; (input ligand: none) 20.3 nM.

“UCGAGUGCUGAGGAUAUCUGCGAGUAAAGCUCAAGAGAAGGCAGUACAUGAGGAUCACCCAUGUGGAGCCUGUG [EX6 B.27] (Eterna round: R97, puzzle: Exclusion 6)”: the “apparent KD of MS2 coat protein” value was 86.7 nM (input ligand: FMN 200 uM) and 21.6 nM (input ligand: none).
